For one assay, the target named is HLA-A*26:01. Nature of the assay: IEDB peptide-MHC binding, purified MHC/direct/fluorescence; filed as Kd, often an IC50 or EC50 that approximates it; ≥ and ≤ were set here for values at or beyond the usual limits of such assays.
The target in a further assay is HLA-B*44:02. The assay is described as above.
Another assay addresses HLA-A*11:01. Described as above.
The target of another assay is HLA-B*08:01. Described as above.
The next assay deals with HLA-B*40:01. The description is as above.
A further assay has as its target HLA-A*01:01. The description is as above.
Another assay deals with HLA-B*27:05. Described as above.
The target in the next assay is HLA-A*31:01. The description is as above.
For a further assay, the target named is HLA-A*69:01. The assay is described as above.
In assay [1] the target is HLA-A*02:01. The assay is described as above.
The target of assay [2] is HLA-B*07:02. The description is as above.
For the next assay, the target named is HLA-B*58:01. Described as above.
In a further assay the target is HLA-A*03:01. The description is as above.
In another assay the target is HLA-B*15:01. The assay is described as above.
The next assay deals with HLA-B*48:01. Described as above. The settings on record: source organism: Mammarenavirus lassaense.
Assay [3] has as its target HLA-A*02:01. Description: IEDB peptide-MHC binding, purified MHC/competitive/radioactivity; filed as Kd, often an IC50 or EC50 that approximates it; ≥ and ≤ were set here for values at or beyond the usual limits of such assays. To be noted: source organism: Vaccinia virus WR.
Another assay addresses HLA-B*35:01. The assay is described as above.
Assay [4] addresses HLA-B*07:02. The description is as above.
Another assay deals with HLA-B*51:01. Described as above.
The target in a further assay is HLA-B*53:01. The assay is described as above.
The target in the next assay is HLA-B*54:01. The assay is described as above.
The next assay deals with HLA-A*02:12. Nature of the assay: IEDB peptide-MHC binding, purified MHC/direct/fluorescence; filed as Kd, often an IC50 or EC50 that approximates it; ≥ and ≤ were set here for values at or beyond the usual limits of such assays. To be noted: source organism: Ravn virus - Ravn, Kenya, 1987.
For a further assay, the target named is HLA-A*24:03. The description is as above. The settings on record: source organism: Vibrio cholerae.
[5] abbreviates: source organism: Coxiella burnetii.
Setting [6] is: source organism: Mammarenavirus lassaense.
Where [7] appears, read: source organism: Vaccinia virus WR.
Where [8] appears, read: source organism: SARS coronavirus Tor2.
Where [9] appears, read: source organism: Ebola virus - Mayinga, Zaire, 1976.
Where [10] appears, read: source organism: Lymphocytic choriomeningitis virus (strain WE).
Where [11] appears, read: source organism: Mammarenavirus choriomeningitidis.
Setting [12] is: source organism: Triticum aestivum.
Setting [13] is: source organism: Vibrio cholerae.
Where [14] appears, read: source organism: Giardia lamblia ATCC 50803.

pKd: −log10 of the molar value.

What is called pKd is the negative decadic logarithm of the Kd, by convention in mol/L.

Turning to YHFDPVHHL, the pKd with HLA-A*26:01 (setting [5]), with HLA-B*44:02 (setting [5]), with HLA-A*11:01 (setting [5]), in the assay with HLA-B*08:01 (setting [5]), with HLA-B*40:01 (setting [5]) and with HLA-A*01:01 (setting [5]) was not above 4.70 each time. In addition, the pKd with HLA-B*27:05 (setting [5]), with HLA-A*31:01 (setting [5]), with HLA-A*69:01 (setting [5]), with HLA-A*02:01 [1] (setting [5]), with HLA-B*07:02 [2] (setting [5]) and with HLA-B*58:01 (setting [5]) was not above 4.70 in each case. In addition, the pKd in the assay with HLA-A*03:01 (setting [5]) and in the assay with HLA-B*15:01 (setting [5]) was not above 4.70 each time.
For RKLLESQGR, the pKd in the assay with HLA-B*27:05 (setting [6]) was 6.35; with HLA-B*48:01, not above 4.70.
For YLLFASMGFK, the negative logarithm of the Kd (pKd) in the assay with HLA-A*02:01 [3] is 5.59; in the assay with HLA-B*35:01 (setting [7]), not above 4.16; with HLA-B*07:02 [4] (setting [7]), not above 4.16.
As to PEIRRWIIF, the negative-log Kd (pKd) was not above 4.70 with HLA-A*26:01 (setting [5]); not above 4.70 with HLA-B*44:02 (setting [5]); not above 4.70 with HLA-A*11:01 (setting [5]); not above 4.70 with HLA-B*08:01 (setting [5]); 5.25 with HLA-B*40:01 (setting [5]); not above 4.70 in the assay with HLA-A*01:01 (setting [5]). The negative logarithm of the Kd (pKd) with HLA-B*27:05 (setting [5]), with HLA-A*31:01 (setting [5]), in the assay with HLA-A*69:01 (setting [5]), with HLA-A*02:01 [1] (setting [5]), with HLA-B*07:02 [2] (setting [5]) and with HLA-B*58:01 (setting [5]) was not above 4.70 in each case. Further, the negative-log Kd (pKd) with HLA-A*03:01 (setting [5]) and in the assay with HLA-B*15:01 (setting [5]) was not above 4.70 throughout.
Consider HPLSINVSGV, for which the pKd was not above 4.53 in the assay with HLA-B*51:01 (setting [7]); 4.73 with HLA-B*53:01 (setting [7]); not above 4.27 with HLA-B*35:01 (setting [7]); 5.42 in the assay with HLA-B*07:02 [4] (setting [7]); 6.92 with HLA-B*54:01 (setting [7]).
Consider YPFYVSPTEM, for which the pKd in the assay with HLA-B*51:01 (setting [7]) was 5.81; with HLA-B*53:01 (setting [7]), 6.35; with HLA-B*35:01 (setting [7]) it was 8.20; with HLA-B*07:02 [4] (setting [7]) it was 5.69; with HLA-B*54:01 (setting [7]), 7.09.
As to SPLFLIVAA, the pKd with HLA-B*51:01 (setting [8]) is 4.92; with HLA-B*53:01 (setting [8]), not above 4.35; with HLA-B*35:01 (setting [8]) it was 5.98; in the assay with HLA-B*07:02 [4] (setting [8]), 6.32; with HLA-B*54:01 (setting [8]) it was 8.60.
With WHYDQENPY, the negative logarithm of the Kd (pKd) in the assay with HLA-B*35:01 (source organism: Dengue virus 4 Philippines/H241/1956) is 5.81.
As for VPEFAKQYVL, the pKd in the assay with HLA-B*51:01 (setting [7]) is 5.81; with HLA-B*53:01 (setting [7]) it was 7.07; in the assay with HLA-B*35:01 (setting [7]), 7.51; in the assay with HLA-B*07:02 [4] (setting [7]), 7.59; in the assay with HLA-B*54:01 (setting [7]), 5.73.
The matching figures for RPRFDDAYNI: 5.47, 7.49, 4.82, 8.28 and 5.62.
In the case of IISDLSIFI, the pKd with HLA-A*02:12 was 7.16; with HLA-A*69:01 (setting [9]), 7.49; with HLA-A*02:01 [1] (setting [9]), 8.52.
Take EPVESCPLM: the pKd with HLA-B*51:01 (setting [10]) is 5.72; with HLA-B*53:01 (setting [10]), 6.75; with HLA-B*35:01 (setting [10]), 7.57; with HLA-B*07:02 [4] (setting [10]), 5.29; with HLA-B*54:01 (setting [10]), not above 4.11.
As to FATCGLFAL, the negative logarithm of the Kd (pKd) in the assay with HLA-B*51:01 (setting [11]) is not above 4.57; with HLA-B*53:01 (setting [11]), 5.06; with HLA-B*35:01 (setting [11]), 6.13; in the assay with HLA-B*07:02 [4] (setting [11]), 5.06; with HLA-B*54:01 (setting [11]) it was 5.20.
Take IPVDLVKSSF: the pKd with HLA-B*51:01 (setting [7]) was 5.27; with HLA-B*53:01 (setting [7]) it was 8.06; with HLA-B*35:01 (setting [7]), 8.27; with HLA-B*07:02 [4] (setting [7]), 7.69; in the assay with HLA-B*54:01 (setting [7]), 6.53.
The matching figures for NPTSETMYL: not above 4.22, 8.38, 7.23, 6.94 and not above 4.43.
As to KPKFCLIDGM, the pKd was not above 4.16 with HLA-B*51:01 (setting [7]); 4.92 in the assay with HLA-B*53:01 (setting [7]); not above 4.65 with HLA-B*35:01 (setting [7]); 7.10 with HLA-B*07:02 [4] (setting [7]); 4.84 with HLA-B*54:01 (setting [7]).
Turning to YPQPQLPY, the pKd in the assay with HLA-B*51:01 (setting [12]) was 4.96; in the assay with HLA-B*53:01 (setting [12]), 5.87; with HLA-B*35:01 (setting [12]), 6.60; with HLA-B*07:02 [4] (setting [12]), not above 4.65; with HLA-B*54:01 (setting [12]) it was not above 4.26.
Take RYDYANLCQ: the negative-log Kd (pKd) in the assay with HLA-A*26:01 (setting [13]), with HLA-B*44:02 (setting [13]), in the assay with HLA-A*11:01 (setting [13]), with HLA-B*08:01 (setting [13]), in the assay with HLA-B*40:01 (setting [13]) and with HLA-A*24:03 was not above 4.70 in each case. Besides, the pKd with HLA-A*01:01 (setting [13]), in the assay with HLA-B*27:05 (setting [13]), in the assay with HLA-A*31:01 (setting [13]), with HLA-A*69:01 (setting [13]), in the assay with HLA-A*02:01 [1] (setting [13]) and in the assay with HLA-B*07:02 [2] (setting [13]) was not above 4.70 throughout. In addition, the pKd in the assay with HLA-B*58:01 (setting [13]), with HLA-A*03:01 (setting [13]) and with HLA-B*15:01 (setting [13]) was not above 4.70 each time.
In the case of IPFDDIVRTM, the pKd with HLA-B*51:01 (setting [7]) was 5.06; with HLA-B*53:01 (setting [7]), 5.99; with HLA-B*35:01 (setting [7]), 6.72; with HLA-B*07:02 [4] (setting [7]), 5.53; with HLA-B*54:01 (setting [7]) it was 5.37.
For the sequence MPDCGMSVLA, the pKd with HLA-B*51:01 (setting [6]) is 5.04; with HLA-B*53:01 (setting [6]) it was 6.35; with HLA-B*35:01 (setting [6]), 7.04; with HLA-B*07:02 [4] (setting [6]), 5.41; with HLA-B*54:01 (setting [6]), 6.98.
KLADMSIYC: the pKd with HLA-A*26:01 (setting [14]), with HLA-B*44:02 (setting [14]), with HLA-A*11:01 (setting [14]), with HLA-B*08:01 (setting [14]), with HLA-B*40:01 (setting [14]) and with HLA-A*01:01 (setting [14]) was not above 4.70 each time. Moreover, the negative logarithm of the Kd (pKd) with HLA-B*27:05 (setting [14]) was not above 4.70; in the assay with HLA-A*31:01 (setting [14]), not above 4.70; in the assay with HLA-A*69:01 (setting [14]), not above 4.70; with HLA-A*02:01 [1] (setting [14]), 7.37; in the assay with HLA-B*07:02 [2] (setting [14]), not above 4.70; with HLA-B*58:01 (setting [14]) it was not above 4.70. Besides, the figures for the pKd with HLA-A*03:01 (setting [14]) and with HLA-B*15:01 (setting [14]) were 5.38 and 5.40, respectively.
On to TPEQKAYVPA, for which the pKd with HLA-B*51:01 (setting [7]) was not above 4.26; with HLA-B*53:01 (setting [7]), not above 4.34; with HLA-B*35:01 (setting [7]), 4.96; in the assay with HLA-B*07:02 [4] (setting [7]), 5.91; with HLA-B*54:01 (setting [7]), 7.88.
With QPSSQVSF, the pKd was 5.53 with HLA-B*51:01 (setting [12]); not above 4.42 with HLA-B*53:01 (setting [12]); not above 4.62 in the assay with HLA-B*35:01 (setting [12]); not above 4.58 with HLA-B*07:02 [4] (setting [12]); not above 4.06 in the assay with HLA-B*54:01 (setting [12]).
Consider LPESDLDKV, for which the pKd is 5.18 with HLA-B*51:01 (setting [7]); 5.14 in the assay with HLA-B*53:01 (setting [7]); not above 4.65 with HLA-B*35:01 (setting [7]); 5.11 with HLA-B*07:02 [4] (setting [7]); 5.64 with HLA-B*54:01 (setting [7]).
Consider NPDNTIAVI, for which the negative-log Kd (pKd) is 5.76 with HLA-B*51:01 (setting [7]); 8.85 with HLA-B*53:01 (setting [7]); 8.58 with HLA-B*35:01 (setting [7]); 6.63 in the assay with HLA-B*07:02 [4] (setting [7]); 5.66 with HLA-B*54:01 (setting [7]).

For the origin of these results see the Immune Epitope Database (IEDB).
